# Numbered stars: 1 amine (or outer) side, 2 acyl side, 3 side chain; on linkers, the order of the positions; unused ones are H or OH. Bridge positions count the residues as written; N and C are the ends. Side chains are listed from the residue outwards. Ends that are not written are not given here. * marks the point of attachment. C20 diacid = O=C(O)CCCCCCCCCCCCCCCCCCC(=O)*; γGlu = O=C(O)[C@H](CCC(=O)[*:2])N[*:1]; AEEA = NCCOCCOCC(=O)O
# T1: human calcitonin receptor (human, UniProt P30988 25-474)
# T1 construct: whole, on cells; also called hCTR; hCT
# T1 sequence (looked up): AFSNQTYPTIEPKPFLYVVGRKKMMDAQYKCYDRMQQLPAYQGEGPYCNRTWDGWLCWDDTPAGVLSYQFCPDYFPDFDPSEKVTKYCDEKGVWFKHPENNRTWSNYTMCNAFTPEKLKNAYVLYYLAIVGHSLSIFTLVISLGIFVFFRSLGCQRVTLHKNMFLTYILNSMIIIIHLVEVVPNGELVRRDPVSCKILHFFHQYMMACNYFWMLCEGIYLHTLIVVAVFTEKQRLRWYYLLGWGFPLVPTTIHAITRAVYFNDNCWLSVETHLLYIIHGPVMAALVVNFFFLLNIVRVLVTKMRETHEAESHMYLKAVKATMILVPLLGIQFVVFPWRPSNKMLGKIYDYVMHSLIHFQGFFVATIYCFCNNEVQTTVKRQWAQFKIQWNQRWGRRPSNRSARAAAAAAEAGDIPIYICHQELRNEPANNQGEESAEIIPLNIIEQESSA
# Legend:
# [1] = target: T1, human calcitonin receptor; test: SPA radioligand competition (125I-calcitonin), membranes of BHK cells with human calcitonin receptor
# Experimental: Membranes were prepared in the following way; the cells were rinsed with PBS and incubated with Versene for approximately 5 min before harvesting. The cells were flushed with PBS and the cell-suspension was centrifuged for 5 min at 1000 rpm. Cells were homogenized (Ultrathurrax) in a buffer containing 20 mM Na-HEPES and 10 mM EDTA (pH 7.4) and centrifuged at 20.000 rpm for 15 min. The resulting pellet was resuspended, homogenized and centrifuged (20.000 rpm, 15 min) in a buffer containing 20 mM Na-HEPES and 0.1 mM EDTA (pH 7.4, buffer 2). The resulting pellet was resuspended in buffer 2 and protein concentration was measured (BCA protein Assay, Pierce). The homogenate was kept cold during the whole procedure. The membranes were kept at −80° C. until use. Assay was performed in a 384 well Optiplate (PerkinElmer) in a total volume of 40 ul. Membranes were mixed with SPA beads. Final concentration of membranes 35 ng/μL final and Final concentration of SPA beads was 0.05 mg/well. Test-compounds were dissolved in DMSO and further diluted in assay buffer (50 mM Hepes, pH 7.4, 1 mM CaCl2, 5 mM MgCl₂, 0.1% OA and 0.02% Tween20). […] The final mixture was incubated for 120 min with shaking at 400 rpm at 25° C. prior to centrifugation (1500 rpm, 10 min). Samples were analyzed on TopCounter™ (Packard). The […] was calculated using (one site binding competition analysis) GraphPad Prism5 as a measure of receptor affinity.
# [2] = target: T1, human calcitonin receptor; test: ratio of IC50 at human calcitonin receptor to IC50 at human amylin receptor (SPA competition assays)
# Experimental: The resulting pellet was resuspended, homogenized and centrifuged (20.000 rpm, 15 min) in a buffer containing 20 mM Na-HEPES and 0.1 mM EDTA (pH 7.4, buffer 2). The resulting pellet was resuspended in buffer 2 and protein concentration was measured (BCA protein Assay, Pierce). The homogenate was kept cold during the whole procedure. The membranes were kept at −80° C. until use. The assay was performed in a 384 well Optiplate (PerkinElmer) in a total volume of 40 ul. Membranes were mixed with SPA beads. Final concentration of membranes 35 ng/μL final and SPA beads was 0.05 mg/well. Test-compounds were dissolved in DMSO and further diluted in assay buffer (50 mM Hepes, pH 7.4, 1 mM CaCl2, 5 mM MgCl₂, 0.1% OA and 0.02% Tween20). […] The final mixture was incubated with shaking at 400 rpm for 120 min at 25° C. prior to centrifugation (1500 rpm, 10 min). Samples were analyzed on TopCounter™ (Packard). The IC₅₀ was calculated using (one site binding competition analysis) GraphPad Prism5 as a measure of receptor affinity.
# Membranes were prepared in the following way; the cells were rinsed with PBS and incubated with Versene for approximately 5 min before harvesting. The cells were flushed with PBS and the cell-suspension was centrifuged for 5 min at 1000 rpm. Cells were homogenized (Ultrathurrax) in a buffer containing 20 mM Na-HEPES and 10 mM EDTA (pH 7.4) and centrifuged at 20.000 rpm for 15 min. The resulting pellet was resuspended, homogenized and centrifuged (20.000 rpm, 15 min) in a buffer containing 20 mM Na-HEPES and 0.1 mM EDTA (pH 7.4, buffer 2). The resulting pellet was resuspended in buffer 2 and protein concentration was measured (BCA protein Assay, Pierce). The homogenate was kept cold during the whole procedure. The membranes were kept at −80° C. until use. Assay was performed in a 384 well Optiplate (PerkinElmer) in a total volume of 40 ul. Membranes were mixed with SPA beads.
IC50 [1] [nM],Ratio hCT/hAmylin binding [2],Binder
17.2,80,"K([AEEA-γGlu-C20 diacid])CNTATCATQRLANFLRHSSPNFGAIPSSTNVGHNTY-NH2 (disulfide 2-7; N-terminus assumed; SMILES CC[C@H](C)[C@H](NC(=O)[C@H](C)NC(=O)CNC(=O)[C@H](Cc1ccccc1)NC(=O)[C@H](CC(N)=O)NC(=O)[C@@H]1CCCN1C(=O)[C@H](CO)NC(=O)[C@H](CO)NC(=O)[C@H](Cc1c[nH]cn1)NC(=O)[C@H](CCCNC(=N)N)NC(=O)[C@H](CC(C)C)NC(=O)[C@H](Cc1ccccc1)NC(=O)[C@H](CC(N)=O)NC(=O)[C@H](C)NC(=O)[C@H](CC(C)C)NC(=O)[C@H](CCCNC(=N)N)NC(=O)[C@H](CCC(N)=O)NC(=O)[C@@H](NC(=O)[C@H](C)NC(=O)[C@@H]1CSSC[C@H](NC(=O)[C@@H](N)CCCCNC(=O)COCCOCCNC(=O)CC[C@H](NC(=O)CCCCCCCCCCCCCCCCCCC(=O)O)C(=O)O)C(=O)N[C@@H](CC(N)=O)C(=O)N[C@@H]([C@@H](C)O)C(=O)N[C@@H](C)C(=O)N[C@@H]([C@@H](C)O)C(=O)N1)[C@@H](C)O)C(=O)N1CCC[C@H]1C(=O)N[C@@H](CO)C(=O)N[C@@H](CO)C(=O)N[C@H](C(=O)N[C@@H](CC(N)=O)C(=O)N[C@H](C(=O)NCC(=O)N[C@@H](Cc1c[nH]cn1)C(=O)N[C@@H](CC(N)=O)C(=O)N[C@H](C(=O)N[C@@H](Cc1ccc(O)cc1)C(N)=O)[C@@H](C)O)C(C)C)[C@@H](C)O, also called compound 76)"
2.57,42.2,"K([AEEA-C20 diacid])CNTATCATQRLAHFLRHSSPNFGAIPSSTNVGSNTY-NH2 (disulfide 2-7; N-terminus assumed; SMILES CC[C@H](C)[C@H](NC(=O)[C@H](C)NC(=O)CNC(=O)[C@H](Cc1ccccc1)NC(=O)[C@H](CC(N)=O)NC(=O)[C@@H]1CCCN1C(=O)[C@H](CO)NC(=O)[C@H](CO)NC(=O)[C@H](Cc1c[nH]cn1)NC(=O)[C@H](CCCNC(=N)N)NC(=O)[C@H](CC(C)C)NC(=O)[C@H](Cc1ccccc1)NC(=O)[C@H](Cc1c[nH]cn1)NC(=O)[C@H](C)NC(=O)[C@H](CC(C)C)NC(=O)[C@H](CCCNC(=N)N)NC(=O)[C@H](CCC(N)=O)NC(=O)[C@@H](NC(=O)[C@H](C)NC(=O)[C@@H]1CSSC[C@H](NC(=O)[C@@H](N)CCCCNC(=O)COCCOCCNC(=O)CCCCCCCCCCCCCCCCCCC(=O)O)C(=O)N[C@@H](CC(N)=O)C(=O)N[C@@H]([C@@H](C)O)C(=O)N[C@@H](C)C(=O)N[C@@H]([C@@H](C)O)C(=O)N1)[C@@H](C)O)C(=O)N1CCC[C@H]1C(=O)N[C@@H](CO)C(=O)N[C@@H](CO)C(=O)N[C@H](C(=O)N[C@@H](CC(N)=O)C(=O)N[C@H](C(=O)NCC(=O)N[C@@H](CO)C(=O)N[C@@H](CC(N)=O)C(=O)N[C@H](C(=O)N[C@@H](Cc1ccc(O)cc1)C(N)=O)[C@@H](C)O)C(C)C)[C@@H](C)O, also called compound 90) [N^ε1-[2-[2-[2-(19-carboxynonadecanoylamino)ethoxy]ethoxy]acetyl]-[His14,Arg17,Pro21,Pro27]-h-amylin]"

# From US20140087995A1 (published 2014)
